Source: patent US20130078247A1 (Boehringer Ingelheim, published 2013)

Tests used:
[1] = target: T1, human DLL4, full length, overexpressed on CHO or HEK293 cells (human, UniProt Q9NR61 27-685); experiment: periplasmic extract; FMAT, Notch1/Fc on CHO-hDLL4
T1 construct: also called CHO-hDLL4; CHO-hDII4
From the text: (§1) All calculations are based on the FL1_total signal which comprises the average of the fluorescence per well times the number of counts per well.

[2] = target: T2, mouse DLL4, full length, overexpressed on CHO or HEK293 cells (mouse, UniProt Q9JI71 27-686); experiment: periplasmic extract; FMAT, Notch1/Fc on CHO-mDLL4
T2 construct: whole, on cells; also called CHO-mDLL4; CHO-mDII4
T2 sequence (Q9JI71 27-686): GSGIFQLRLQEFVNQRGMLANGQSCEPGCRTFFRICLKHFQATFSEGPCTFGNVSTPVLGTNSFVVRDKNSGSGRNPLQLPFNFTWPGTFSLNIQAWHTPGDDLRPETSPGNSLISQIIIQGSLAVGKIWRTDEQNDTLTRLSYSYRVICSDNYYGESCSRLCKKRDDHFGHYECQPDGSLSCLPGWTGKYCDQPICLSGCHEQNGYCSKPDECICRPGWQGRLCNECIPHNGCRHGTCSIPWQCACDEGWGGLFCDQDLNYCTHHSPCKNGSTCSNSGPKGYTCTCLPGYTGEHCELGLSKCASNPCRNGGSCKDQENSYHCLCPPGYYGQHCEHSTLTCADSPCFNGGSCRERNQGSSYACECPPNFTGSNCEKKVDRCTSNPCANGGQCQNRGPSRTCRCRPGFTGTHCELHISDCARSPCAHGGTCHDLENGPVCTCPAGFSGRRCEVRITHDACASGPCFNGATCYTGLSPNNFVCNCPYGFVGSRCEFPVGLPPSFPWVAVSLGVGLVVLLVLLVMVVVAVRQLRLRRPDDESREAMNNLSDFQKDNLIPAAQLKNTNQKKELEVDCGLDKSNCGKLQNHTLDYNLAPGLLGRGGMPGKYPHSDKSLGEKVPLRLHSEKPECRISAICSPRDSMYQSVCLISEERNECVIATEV
From the text: as §1

B1: DLLBII102F08 (VHH)
VHH: EVQLVESGGGLVQTGDSLRLSCAASGSTFSNYRMGWFRQGPGKEREFVAAIGRNGQNTYYTDSVKGRFTVTRDNAKNMVYLQMNSLKPEDSAVYTCAASLRGWDTTRIDYEYWGQGTQVTVSS
notes: also called DLLBII102F8; not shown: C-terminal c-myc and His6 tags
% inhibition [1]: 85%
% inhibition [2]: 75%

B2: DLLBII83G01 (VHH)
VHH: EVQLVESGGGLVQAGGSLRLSCAASGRTFSNYIMGWFRQAPGKEREFVAGISRYADYTGYADSVKGRFTISRDNVKNTVYLRMNSLKPDDTAVYYCAANEGYCSGYGCYEDSGQYDYWGQGTQVTVSS
notes: also called DLLBII83G1; not shown: C-terminal c-myc and His6 tags
% inhibition [1]: 87%
% inhibition [2]: 93%

B3: DLLBII101H05 (VHH)
VHH: EVQLVESGGGSAQAGGSLRLSCAASGRTSSTYAMGWFRQAPGKEHEFVSAIGRGTGATSYGDSVKGRFTISRDNAKNTVYLQMNSLQLEDTGDYYCVAGRGFYHDYSSYEYRGQGTQVTVSS
notes: also called DLLBII101H5; not shown: C-terminal c-myc and His6 tags
% inhibition [2]: 83%

B4: DLLBII61F07 (VHH)
VHH: EVQLVESGGGLVQAGGSLRLSCAASGRTFSRYAMGWFRQAPGKEREFVAAINWSGGSTYYADSVKGRFTISRDNAKNTVYLQMNSLKPEDTAVYDCAASNYYSVYDDRPVMDYWGQGTQVTVSS
notes: also called DLLBII61F7; not shown: C-terminal c-myc and His6 tags
% inhibition [1]: 79%
% inhibition [2]: 77%

B5: DLLBII95F02 (VHH)
VHH: EVQLVESGGGSVQAGGSLRLSCAASGRTFSSYAMGWFRQAPGKEREFVAAINWSGGYTYYADSVRGRFTISRDNAKNTVYLQMNSLKPEDTAVYYCAAPAPGSSGYEYDYWGQGTQVTVSS
notes: also called DLLBII95F2; not shown: C-terminal c-myc and His6 tags
% inhibition [1]: 81%
% inhibition [2]: 71%

B6: DLLBII47D01 (VHH)
VHH: EVQLVESGGGLVQPGGSLRLSCAASGFTFDDYAIGWFRQAPGKEREGVSCISSSGSTYYADSVKGRFTISRDNAKNTVYLQMNSLKPEDTAVYYCAIAGASSWCFPPGYWGQGTQVTVSS
notes: also called DLLBII47D1; not shown: C-terminal c-myc and His6 tags
% inhibition [1]: 87%

B7: DLLBII102G04 (VHH)
VHH: EVQLMESGGGLVQPGGSLRLSCAASGFTFSSYAMSWVRQAPGKGLEWVSRITSGGRTTYRDSVKGRFTISRDNSKNTLYLQMNSLKPEDTALYYCAKARGDIDVYTLSDSRGQGTQVTVSS
notes: also called DLLBII102G4; not shown: C-terminal c-myc and His6 tags
% inhibition [1]: 86%
% inhibition [2]: 82%

B8: DLLBII61F05 (VHH)
VHH: EVQLVESGGGLVQPGGSLRLSCTASGFTFSSYAMSWVRQAPGKGLEWVSFINKDGSDTGYADSVKGRFTISRDNAKNTMYLQMNSLKPEDTAVYFCETRTSRSPRPRGQGTQVTVSS
notes: also called DLLBII61F5; not shown: C-terminal c-myc and His6 tags
% inhibition [1]: 74%
% inhibition [2]: 76%

B9: DLLBII58A11 (VHH)
VHH: EVQLVESGGGLVQAGGSLRLSCTTSERTVSRYSMGWFRQAPGKEREAVATISWSGDSTYYADSVKGRFTISRDNTKNTLYLQIDSLKPEDTAVYYCVAKPNLKYGSYWPPRGYDYWGQGTQVTVSS
notes: not shown: C-terminal c-myc and His6 tags
% inhibition [1]: 95%
% inhibition [2]: 73%

B10: DLLBII112A03 (VHH)
VHH: EVQLVESGGGLVQPGGSLRLSCAASGIRFSINGMGWYRQAPGKQREAVATITRGGIRDYTDSVKGRFTISRDIARNTVYLQMNNLKPEDSAVYYCNIDIYWGRGTQVTVSS
notes: also called DLLBII112A3; not shown: C-terminal c-myc and His6 tags
% inhibition [1]: 72%
% inhibition [2]: 97%

B11: DLLBII80E08 (VHH)
VHH: EVQLVESGGGLVQAGGSLTLSCAASGGTFTTYAMGWFRQAPGKEREFVAAVSRFGVSWDYADSVKGRFTISRDNTANTLKLRMNSLKADDTAVYYCAAGGRSFLPFVPAYWGQGTQVTVSS
notes: also called DLLBII80E8; not shown: C-terminal c-myc and His6 tags
% inhibition [1]: 71%
% inhibition [2]: 82%
